In US20170152313A1 (Novartis, published 2017):

B1: FF5 (antibody, human IgG1, kappa, L234A L235A, V domains shown)
VH: QVQLVQSGAEVKKPGASVKVSCKASGYTFTDYEVHWVRQAPGQGLEWMGAIHPGSGGAAYVQKFQGRVTMTRDTSISTAYMELSRLRSDDTAVYYCARWLPMDYWGQGTLVTVSS
VL: DIQMTQSPSSVSASVGDRVTITCRASQGINNWLVWYQQKPGKAPKLLLYAASRLESGVPSRFSGSGSGTDYTLTISSLQPEDIATYYCQQYLITPYTFGQGTKLEIKR
notes: Humaneered variant of E2E10, tested as full human IgG; Biotinylated for the neutrophil assay; also called LLG787; LLG787 (FF5)
B2: FF4 (antibody, human IgG1, kappa, L234A L235A, V domains shown)
VH: QVQLVQSGAEVKKPGASVKVSCKASGYTFTDYEVHWVRQAPGQGLEWMGAIHPGSGGAAYVQKFQGRVTMTRDTSISTAYMELSRLRSDDTAVYYCARWLPMDYWGQGTLVTVSS
VL: DIQMTQSPSSVSASVGDRVTITCRASQGITNWLAWYQQKPGKAPKLLIYAASILESGVPSRFSGSGSGTDYTLTISSLQPEDIATYYCQQYLITPYTFGQGTKLEIKR
notes: Humaneered variant of E2E10, tested as full human IgG; the text and claims pair heavy chain 56 with light chain 66; Biotinylated for the neutrophil assay; also called LLG786; LLG786 (FF4)
B3: FF6 (antibody, human IgG1, kappa, L234A L235A, V domains shown)
VH: QVQLVQSGAEVKKPGASVKVSCKASGYTFTDYEVHWVRQAPGQGLEWMGAIHPGSGGAAYVQKFQGRVTMTRDTSISTAYMELSRLRSDDTAVYYCARWLPIDYWGQGTLVTVSS
VL: DIQMTQSPSSVSASVGDRVTITCRASQGINNWLVWYQQKPGKAPKLLLYAASRLESGVPSRFSGSGSGTDYTLTISSLQPEDIATYYCQQYLITPYTFGQGTKLEIKR
notes: Humaneered variant of E2E10, tested as full human IgG; Biotinylated for the neutrophil assay; also called LLG788; LLG788 (FF6)
B4: FF1 (antibody, human IgG1, kappa, L234A L235A, V domains shown)
VH: QVQLVQSGAEVKKPGASVKVSCKASGYTFTDYEVHWVRQAPGQGLEWMGAIHPGSGGAAYVQKFQGRVTMTRDTSTSTAYMELSSLRSDDTAVYYCARWLPMDYWGQGTLVTVSS
VL: DIQMTQSPSSVSASVGDRVTITCRASQGINNWLVWYQQKPGKAPKLLIYAASSLQSGVPSRFSGSGSGADYTLTISSLQPEDFATYYCQQYLITPYTFGQGTKLEIKR
notes: Humaneered variant of E2E10, tested as full human IgG (captured or detected with anti-human IgG); Biotinylated for the neutrophil assay; also called LLG783; LLG783 (FF1)
B5: FF3 (antibody, human IgG1, kappa, L234A L235A, V domains shown)
VH: QVQLVQSGAEVKKPGASVKVSCKASGYTFTDYEVHWVRQAPGQGLEWMGAIHPGSGGAAYVQKFQGRVTMTRDTSISTAYMELSRLRSDDTAVYYCARWLPMDYWGQGTLVTVSS
VL: DIQMTQSPSSVSASVGDRVTITCRASQGINNWLVWYQQKPGKAPKLLIYAASSLQSGVPSRFSGSGSGADYTLTISSLQPEDFATYYCQQYLITPYTFGQGTKLEIKR
notes: Humaneered variant of E2E10, tested as full human IgG; Biotinylated for the neutrophil assay; also called LLG785; LLG785 (FF3)

Key:
[1] = biological target: T1, Human LOX-1 full-length protein (human, UniProt P78380 1-273); assay: cell-based or functional assay
[2] = biological target: T2, APP-Avi-soluble cynomolgus monkey LOX-1 (61-273) (cynomolgus monkey, biotinylated at the Avi tag when immobilised in the SET assay); assay: solution equilibrium titration (SET), MSD read-out
T2 construct: Expressed and purified in the same way as the human protein; also called cynomolgus monkey soluble LOX-1; Cynomolgus Monkey Soluble APP-Avi-LOX-1
T2 sequence (chain, as listed by the source): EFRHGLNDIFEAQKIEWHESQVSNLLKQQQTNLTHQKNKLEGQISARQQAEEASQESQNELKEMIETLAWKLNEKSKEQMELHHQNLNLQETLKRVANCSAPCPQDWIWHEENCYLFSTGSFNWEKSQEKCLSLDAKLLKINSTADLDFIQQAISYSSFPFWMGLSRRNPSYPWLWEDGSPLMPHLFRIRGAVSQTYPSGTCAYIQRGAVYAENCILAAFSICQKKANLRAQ
Experimental: (§1) For humanized LOX-1 antibodies FF1, FF3, FF4, FF5, and FF6, the following solution equilibrium titration (SET) assay protocol was used to determine KD values. The assays were performed in a 96-well polypropylene plate (Thermo Scientific, Catalog no. AB-1127) as follows. A constant concentration of LOX-1 antibody (1 pM) was mixed with different concentrations of non-biotinylated human or cynomolgus monkey LOX-1 protein (3-fold serial dilution ranging from 1 nM to 0.017 pM) in SET buffer (PBS, pH 7.4 without CaCl₂ or MgCl₂, Gibco, catalog no. P7949; 0.5% w/v bovine serum albumin, fatty acid free, Calbiochem, catalog no. 26575; and 0.02% v/v Tween-20, Sigma, catalog no. P7949). The final reaction volume was […]. The plate was sealed using an adhesive film (WVR, catalog no. 60941-062) and incubated at 22° C. for 14 hours with constant shaking (300 rpm).
(§2) During the same period, a 384-well streptavidin-coated MSD plate (Meso Scale Discovery, catalog no. L21SA) was blocked by incubating the plate with 50 μL blocking buffer (PBS, pH 7.4, 5% w/v bovine serum albumuin) per well overnight at 4° C. The blocked MSD plate was then washed 3 times with wash buffer (PBS, pH 7.4 and 0.05% v/v Tween-20) using a plate washer (BioTek). Following washing, biotinylated human or cynomolgus monkey soluble LOX-1 protein (25 pM, 15 μL per well) was immobilized on the surface by incubation at 22° C. for one hour with constant shaking (600 rpm). The plate was then washed 3 times as described earlier. In some experiments, non-biotinylated soluble human LOX-1 protein was used (R&D systems, catalog no. 1798-LX-050) was used; in this case the LOX-1 protein was immobilized by overnight incubation at 1 nM concentration in a standard MSD plate (MSD, catalog no. L21XA). The equilibrium binding reactions (15 μL per well) were then applied to the MSD plate with immobilized LOX-1 and incubated for 30 min. The unbound material was removed by washing the plate, and the captured antibody was detected by adding 15 μL per well of a 1:500 dilution of Sulfa-tagged goat anti-human IgG (Mesa Scale Discovery, catalog no. R3AJ-1). The plate was then incubated for one hour with constant shaking (600 rpm). The plate was washed 3 times, and then […] 1×MSD read buffer T(Meso Scale Discovery, catalog no. R92TC-2) was added and the plate was developed using a Sector Imager 6000 (Mesa Scale Discovery).

[3] = biological target: Human Soluble His9-LOX-1 from R&D Systems (human, UniProt P78380 61-273); assay: solution equilibrium titration (SET), MSD read-out
Experimental: as §1, §2

[4] = biological target: T1, Human LOX-1 full-length protein; assay: flow cytometry, inhibition of dil-OxLDL binding to huLOX-1/HEK293 cells
Experimental: The huLOX-1/HEK293 cells were resuspended at 1×10⁶ cells/mL and seeded 50 μL per well into a 96-well V-bottom plate (5×10⁴ cells per well). LOX-1 or irrelevant control antibodies in assay medium (DMEM+10% FBS) were then added to the cells. Typical final antibody concentrations ranged from 0.006 μg/mL to 20 μg/mL. The cells were incubated at 37° C. for 1 hour, then washed twice with warm HBSS. Dil-oxLDL (human dil-labeled “High Oxidized” LDL, Kalen Biomedical, catalog number 770262-9; Dil is 1,1′-dioctadecyl-3,3,3′,3′-tetramethylindocarbocyanine perchlorate) in 50 ul assay medium was then added to a final concentration 30 to 100 μg/mL. The cells were then incubated at 37° C. for 2 hours, and then washed twice with FACS buffer (2% FBS in PBS). Cells were then analyzed for intensity of Di-I fluorescence by flow cytometry, as depicted in FIG. 2 and Table 3.

[5] = biological target: T1, Human LOX-1 full-length protein; assay: flow cytometry, biotinylated antibody on primary human neutrophils, PE-streptavidin
Experimental: The resulting cell suspension was carefully transferred to a 50 mL conical tube containing 10 mL Ficoll-Paque, layering the cell suspension on top of the Ficoll-Paque, and the tube was then centrifuged at 1400 rpm (400×g) for 30 minutes at room temperature. The top layer was the discarded. To the resulting cell pellet, 10 mL 0.2% ice-cold sodium chloride was added, and the mixture was incubated for exactly 30 seconds to lyse red blood cells; 10 mL of ice-cold 1.6% sodium chloride was added to restore isotonicity. The cell suspension was then centrifuged at 1200 rpm ([…]) for 5 minutes. The supernantant was then discarded, and the red blood cell lysis procedure repeated once more. The resulting cell pellet was resuspended in FACS buffer (2 mM EDTA, 1% BSA, and 0.2% sodium azide in PBS) at a cell density of 2×10⁶ cells/mL.
The cell suspension containing freshly isolated human neutrophils was transferred (50 ul/well) to wells of a 96-well V-bottom plate (1×10⁵ cells/well) (Costar, catalog number 3894). Blocking buffer (4% normal rabbit serum diluted in FACS buffer (2 mM EDTA, 1% BSA, and 0.2% sodium azide in PBS) (50 ul/well) was added and the plate was incubated on ice for 30 minutes. Biotinylated LOX-1 antibody (10 μl) in FACS buffer was then added to the wells at final concentrations ranging from 1 ng/ml to 5 ug/mL, and the plate was incubated on ice for 30 minutes. The plate was then centrifuged at 1200 rpm (250-300×g) for 3 minutes and supernatant was discarded. The cells were then washed twice with 0.2 mL FACS buffer, and then 0.1 mL of PE-streptavidin (BD Pharmingen catalog number 554061) diluted at 1:250 in FACS buffer was added, and the plate incubated on ice for 30 minutes. The plate was then centrifuged again, supernatant discarded, and the cells washed twice with 0.2 mL FACS buffer. Cells were then resuspended in 0.1 mL of fixing buffer (FACS buffer with 2% paraformaldehyde) and analyzed using a FACS instrument. To determine an EC50 value for neutrophil binding by LOX-1 antibodies, the LOX-1 staining intensity determined by FACS was plotted vs. the concentration of the antibody as shown in FIG. 5 and Table 3.

[6] = biological target: T2, APP-Avi-soluble cynomolgus monkey LOX-1 …; assay: SPR Biacore T200, antibody captured by anti-human IgG, cynomolgus soluble LOX-1 as analyte, 1:1 model
Experimental: Surface plasmon resonance measurements quantifying the interaction of humanized LOX-1 antibodies with human or cynomolgus monkey LOX-1 were done with the optical biosensor BIAcore T200 on a CM5 chip. Goat-anti-hlgG (gamma) (Invitrogen H10500) was coated at 3,000 RU on the CM5 chip in acetate buffer, pH 4.0. The running buffer used was PBS, pH 7.4 (filtered, degassed). Test antibodies were loaded into individual flow cells at a concentration of 1 ug/mL at a flow rate of 10 uL/min. The target number of IgG capture was between 20-30 RU, in HBS-EP buffer (0.01M HEPES, pH 7.4, 0.15M NaCl, 3 mM EDTA, 0.05% P20). Human or cynomolgus monkey soluble LOX-1 was diluted to a concentration of 33 nM in HBS-EP buffer, then diluted serially (1:3) down to a concentration of 0.137 nM. This represents six different concentrations of human or cynomolgus monkey LOX-1. The antigen was introduced into individual flow cells at a flow rate of 30 uL/min. Parameters for association time were set at 700 seconds and dissociation time was set at 5,400 seconds. Data were analyzed using buffer blanks, reference blank, and a 1:1 binding model for curve fitting in order to determine association and dissociation rate constants (ka and kd) and equilibrium binding constants (KD) (see results for FF1, FF3, FF4, FF5, and FF6 in Tables 7-8).

Row | Binder | Reactive oxygen species (ROS) generation in huLOX-1/HEK293 cells (IC50, nM) [1] | Kd [2] | Kd [3] | IC50 [4] | EC50 [5] | Kd [6] | koff [6] | kon [6]
1 | B1 | 4.8 nM | 0.0006 nM | 0.0008 nM | 4.1 nM | 0.08 µg/mL | 0.035 nM | 4.8e-05 s⁻¹ | 1.4e+06 M⁻¹ s⁻¹
2 | B2 | 5.3 nM | 0.0007 nM | 0.0007 nM | 5 nM | 0.23 µg/mL | 0.001 nM | 2.6e-06 s⁻¹ | 2.1e+06 M⁻¹ s⁻¹
3 | B3 | 7.9 nM | 0.0016 nM | 0.002 nM | 5.9 nM | 0.28 µg/mL | 0.053 nM | 5e-05 s⁻¹ | 950000 M⁻¹ s⁻¹
4 | B4 | 6 nM | 0.0018 nM | 0.0031 nM | 5.5 nM | 0.15 µg/mL | 0.012 nM | 1.3e-05 s⁻¹ | 1.1e+06 M⁻¹ s⁻¹
5 | B5 | 7.4 nM | 0.0034 nM | 0.0023 nM | 3.3 nM | 0.13 µg/mL | 0.023 nM | 1.7e-05 s⁻¹ | 770000 M⁻¹ s⁻¹
